To fix the notation:
B1: CPEB3 Ribozyme (parent)
chain: GGGGGCCACAGCAGAAGCGUUCACGUCGCGGCCCCUGUCAGAUUCUGGUGAAUCUGCGAAUUCUGCUGU

In the data set the parent is B1. The data set can be described thus: self-cleavage, relative activity (ratio to wild type); higher = more cleavage; co-transcriptional.
With GGGUGCCACAGCAGAAGCGUGCACGUCGCGGCCCCUGUCAGAUUCUGGUGAAUCUGCGAAUUCUGCUGU, the self-cleavage turned out to be 0.054.

Regarding GGGUGCCACAGCAGAAGCGUUCACGUCACGGCCCCUGUCAGAUUCUGGUGAAUCUGCGAAUUCUGCUGU, the self-cleavage is 0.0947.

With GGGUGCCACAGCAGAAGCGUUCACGUCUCGGCCCCUGUCAGAUUCUGGUGAAUCUGCGAAUUCUGCUGU, the self-cleavage stood at 0.0847.

Regarding GGGUGCCACAGCAGAAGCGUUCACGUCGCGGCCCCUGUCAGAUUCUGGAGAAUCUGCGAAUUCUGCUGU, the self-cleavage came to 0.821.

Take GGGUGCCACAGCAGAAGCGUUCACGUCGCGGCCCCUUUCAGAUUCUGGUGAAUCUGCGAAUUCUGCUGU: the self-cleavage came out at 0.128.

Consider GGGUGCCACAGCAGAAGCGUUCACGUCGUGGCCCCUGUCAGAUUCUGGUGAAUCUGCGAAUUCUGCUGU, for which the self-cleavage stood at 0.192.

Regarding GGGUGCCACAGCAGAAGCGUUCACGUCGGGGCCCCUGUCAGAUUCUGGUGAAUCUGCGAAUUCUGCUGU, the self-cleavage came to 0.1.

Consider GGGUGCCACAGCAGAAUCGUUCACGUCGCGGCCCCUGUCAGAUUCUGGUGAAUCUGCGAAUUCUGCUGU, for which the self-cleavage stood at 0.072.

Regarding GGGUGCCACAGCAGAACCGUUCACGUCGCGGCCCCUGUCAGAUUCUGGUGAAUCUGCGAAUUCUGCUGU, the self-cleavage turned out to be 0.112.

As to GGGUGCCACAGCAGAAGCGUUCACGUCGCGGCCCCUGUCAGAUUCUGGUGAAUCUGCUAAUUCUGCUGU, the self-cleavage amounted to 0.798.

For GGGUGCCACAGCAGAAGCGUUCACGUCGCGGCCCCUGUCAUAUUCUGGUGAAUCUGCGAAUUCUGCUGU, the self-cleavage is 0.251.

As to GGGUGCCACAGCAGAAGCGUUCACGUCGCGGCCCCUGUCAAAUUCUGGUGAAUCUGCGAAUUCUGCUGU, the self-cleavage worked out at 0.265.

With GGGUGCCACAGCAGAAGCGUUCACGUCGCGGCCCCUGGCAGAUUCUGGUGAAUCUGCGAAUUCUGCUGU, the self-cleavage amounted to 0.114.

For the variant GGGUGCCACAGCAGAAGCGUUCACGUCGCGGCGCCUGUCAGAUUCUGGUGAAUCUGCGAAUUCUGCUGU, the self-cleavage turned out to be 1.

In the case of GGGUGCCACAGCAGAAGCGUUCACGUCGCGGCCCCUGUCAGAUUCUGGUGAAUCUGCGAAUUCUUCUGU, the self-cleavage is 0.254.

As for GGGUGCCACAGCAGAAGCGUUCACGUCGCGGCCCCUGUCAGAUUCUGGUGAAUCUGCGAAUUCUCCUGU, the self-cleavage came to 0.411.

On to GGGUGCCACAGCAGAAGCGUUCACGUCGCGGCCCCUGUCAGAUUCUGUUGAAUCUGCGAAUUCUGCUGU, for which the self-cleavage amounted to 0.813.

For the variant GGGUGCCACAGCAGAAGCGUUCACGUCGCGGCCCCUGUCAGAUUCUGCUGAAUCUGCGAAUUCUGCUGU, the self-cleavage worked out at 0.752.

In the case of GGGUGCCACAGCAGAAGCGUUCACGUCGCGGCCCCUGUUAGAUUCUGGUGAAUCUGCGAAUUCUGCUGU, the self-cleavage was 0.376.

Take GGGUGCCACAGCAGAAGCGUUCACGUCGCGGCCCCUGUGAGAUUCUGGUGAAUCUGCGAAUUCUGCUGU: the self-cleavage was found to be 0.558.

Regarding GGGUGCCACAGCAAAAGCGUUCACGUCGCGGCCCCUGUCAGAUUCUGGUGAAUCUGCGAAUUCUGCUGU, the self-cleavage was 0.257.

As for GGGUGCCACAGCAGAAGCGUUCACGUCGCGGCCCCUGUCAGAUUCUGGUGAAUCUACGAAUUCUGCUGU, the self-cleavage is 0.466.

On to GGGUGCCACAGCAGAAGCGUUCACGUCGCGGCCCCUGUCAGAUUCUGGUUAAUCUGCGAAUUCUGCUGU, for which the self-cleavage is 0.817.

On to GGGUGCCACAGCAGAAGCGUUCACGUCGCGGCCCCUGUCAGAUUCUGGUCAAUCUGCGAAUUCUGCUGU, for which the self-cleavage amounted to 0.764.

On to GGGUGCCACAGCAGAAGCGUUCACGUCGCGGCCCCUGUCAGAUUCUGGUGAAUCUGCGAAUUCUGGUGU, for which the self-cleavage turned out to be 0.431.

As for GGGUGCCACAGCAGAAGCGUUCACGUCGCGGCCCCUGUCAGACUCUGGUGAAUCUGCGAAUUCUGCUGU, the self-cleavage is 0.462.

On to GGGUGCCACAGCAGAAGCGUUCACGACGCGGCCCCUGUCAGAUUCUGGUGAAUCUGCGAAUUCUGCUGU, for which the self-cleavage was determined as 0.282.

Consider GGGUGCCACAGCAGAAGCGUUCACGCCGCGGCCCCUGUCAGAUUCUGGUGAAUCUGCGAAUUCUGCUGU, for which the self-cleavage came to 0.641.

Turning to GGGUGCCACAGCAGAAGCGUUCACGUCGCGGCCCCUGUCAGAUUCUGGUGAAUCUGAGAAUUCUGCUGU, the self-cleavage worked out at 0.17.

GGGUGCCACAGCAGAAGCGUUCACGUCGCAGCCCCUGUCAGAUUCUGGUGAAUCUGCGAAUUCUGCUGU: the self-cleavage was found to be 0.142.

For GGGUGCCACAGCAGAAGCGUUCACGUCGCGGCCCCUGUCAGAUUCUGGUGAAUCUGCGAAUUCUGCUAU, the self-cleavage stood at 0.983.

Take GGGUGCCACAGCAGAAGCGUUCACGUCGCGGCCCCUGUCAGAUUCUGGUGAAUCUGCGAAUUCUGCUCU: the self-cleavage was 0.97.

As for GGGUGCCACAGCAGAAGCGUUCACGUCGCGGCCCCUGUCAGAUACUGGUGAAUCUGCGAAUUCUGCUGU, the self-cleavage was determined as 0.532.

In the case of GGGUGCCACAGCAGAAGCGUUCACGUCGCGACCCCUGUCAGAUUCUGGUGAAUCUGCGAAUUCUGCUGU, the self-cleavage is 0.0947.

Consider GGGUGCCACAGCAGAAGCGUUCACGUCGCGGCCCCUGUCAGAUUCUGGUGAAUCUGCGAAUUUUGCUGU, for which the self-cleavage was 0.739.

GGGUGCCACAGCAGAAGCGUUCACGUCGCGGCCCCUGUCAGAUUCUGGUGAAUCUGCGAAUUAUGCUGU: the self-cleavage worked out at 0.306.

Consider GGGUACCACAGCAGAAGCGUUCACGUCGCGGCCCCUGUCAGAUUCUGGUGAAUCUGCGAAUUCUGCUGU, for which the self-cleavage came to 0.0691.

Consider GGGUCCCACAGCAGAAGCGUUCACGUCGCGGCCCCUGUCAGAUUCUGGUGAAUCUGCGAAUUCUGCUGU, for which the self-cleavage worked out at 0.105.

For GGGUGCCACAGCAGAAGCGUUCACGUGGCGGCCCCUGUCAGAUUCUGGUGAAUCUGCGAAUUCUGCUGU, the self-cleavage stood at 0.0677.

Source of the values: the RNAGym collection of RNA variant scans (doi:10.7554/elife.80360).
